The source of these data is patent US20080207488A1, “Method for Detecting Peptides Comprising a Cross-B Structure” (priority 2005, published 2008).

Data set [1] concerns the target T1, tPA (Homo sapiens, UniProt P00750).
T1 construct: purchased Boehringer-Ingelheim (Actilyse, Alteplase)
Briefly: Plasminogen-activation assay (tPA-mediated Plg to Pls, S-2251). It counts as biochemical.

The nature of data set [2]: Thioflavin T fluorescence. Type of data set: physicochemical.
Data set [3] has as its target T2, human fibronectin finger 4,5 (Fn F4,5) fragment (Homo sapiens, UniProt P02751).
T2 construct: human fibronectin finger 4,5 (Fn F4,5) fragment; made in house; host or cells: HEK293E cells, transient transfection, protein purified from the medium
Briefly: ELISA, binding of fibronectin F4,5 to coated (mis)folded proteins. The note with it: coated protein; for affinity of fibronectin F4,5 (detection anti-FLAG HRP): FIG. 7D-H. How it is done:
The plates were blocked using Blocking reagent (Roche 1112589). A dilution series of the protein of interest was applied to the coated proteins and wells were subsequently washed using TBS-T (50 mM Tris pH 7.3, 150 mM NaCl and 0.1% Tween20). Bound protein is detected by the FLAG-tag using 1:3000 anti-FLAG-HRP (Sigma A-8592) in PBS-T, or by 1:1000 Ni-NTA-HRP (Qiagen 34530) in PBS-T. The HRP reaction Is performed using the TMB substrate (Biosource 4501103 or Tebu Bio 101TMB100-500), stopped using 10% H2SO4 and absorbance was measured at 450 nm.
Background: ELISA stands for enzyme-linked immunosorbent assay.

T1 sequence (P00750 36-562): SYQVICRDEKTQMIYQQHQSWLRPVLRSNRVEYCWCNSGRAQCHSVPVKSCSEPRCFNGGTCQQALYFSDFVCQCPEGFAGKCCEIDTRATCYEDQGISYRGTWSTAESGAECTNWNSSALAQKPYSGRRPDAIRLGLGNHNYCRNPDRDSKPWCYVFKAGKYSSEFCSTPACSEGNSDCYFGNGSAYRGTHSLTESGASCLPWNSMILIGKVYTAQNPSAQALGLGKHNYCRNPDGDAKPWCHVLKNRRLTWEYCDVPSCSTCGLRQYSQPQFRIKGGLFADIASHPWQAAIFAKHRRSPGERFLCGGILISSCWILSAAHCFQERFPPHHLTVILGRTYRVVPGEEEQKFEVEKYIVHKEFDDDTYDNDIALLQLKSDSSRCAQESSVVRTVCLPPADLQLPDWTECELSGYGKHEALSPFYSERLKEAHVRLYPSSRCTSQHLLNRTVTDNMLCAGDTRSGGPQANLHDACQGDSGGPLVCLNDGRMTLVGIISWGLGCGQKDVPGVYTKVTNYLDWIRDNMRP
T2 sequence (P02751 182-276 limits assumed): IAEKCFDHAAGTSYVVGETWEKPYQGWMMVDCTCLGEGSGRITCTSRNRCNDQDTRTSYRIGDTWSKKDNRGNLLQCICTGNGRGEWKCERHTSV

Regarding “Abciximab: abciximab, an inhibitor of blood platelet aggregation (ReoPro, Centocor)”, in data set [1] (after storage at 65° C.), the “Pls activity (tPA activation)” value is reported as “induced Pls activity”. Moreover, the “tPA activation by protein therapeutics” value in data set [1] (stored at 4° C., GH 500 μg ml^−1, zinc-insulin diluted tenfold) is on record as “do not have ThT fluorescence enhancing or tPA activating properties”. For the same substance, in data set [2] (after storage at 65° C.), the ThT fluorescence enhancement entry was “enhanced ThT fluorescence”. Further, the “Fluorescence (a.u. +/− SD) ThT” value in data set [2] (marketed biopharmaceutical within expiry limits, five μL tested) is given as 8 +/− 8 a.u. Besides, in data set [2] (therapeutics stored at 4° C.), the “enhancement of ThT fluorescence” value is given as “do not have ThT fluorescence enhancing or tPA activating properties”.

In the case of “albumin-AGE: advanced glycation end-product modified bovine serum albumin”, the “binding of fibronectin F4-5 (detection Ni-NTA-HRP)” value in data set [3] (FIG. 7A) is on record as “high affinity binding”. For the same substance, in data set [3], the “affinity of fibronectin F4,5 (detection anti-FLAG HRP)” value is reported as “High affinities”.

Consider lysozyme: chicken egg-white lysozyme, for which the “activation of tPA and Plg by component alone” value in data set [1] (FIG. 2G, without contacting) was “do not activate tPA and Plg”. The “affinity of fibronectin F4,5 (detection anti-FLAG HRP)” value in data set [3] was “high affinity”. The “ThT fluorescence after incubation with kaolin” value in data set [2] (compared to buffer) is “only in a small increase in ThT fluorescence”.
